According to PMC10729856:

Target: SidN (Lpg1083), recombinant with 6-His tag (Legionella pneumophila) (UniProt Q5ZWK2)
Assay: SEC

SidN (Lpg1083), recombinant with 6-His tag (from UniProt Q5ZWK2 1-227) (natural protein)
stoichiometry N: 2
